Experimental data taken from patent US20240132604A1.

Biological target: CHO-hCCR8 (human) (UniProt P51685)
Assay: FACS binding, CHO-K1 cells overexpressing human CCR8

Sequence of UniProt P51685 (P51685 whole entry): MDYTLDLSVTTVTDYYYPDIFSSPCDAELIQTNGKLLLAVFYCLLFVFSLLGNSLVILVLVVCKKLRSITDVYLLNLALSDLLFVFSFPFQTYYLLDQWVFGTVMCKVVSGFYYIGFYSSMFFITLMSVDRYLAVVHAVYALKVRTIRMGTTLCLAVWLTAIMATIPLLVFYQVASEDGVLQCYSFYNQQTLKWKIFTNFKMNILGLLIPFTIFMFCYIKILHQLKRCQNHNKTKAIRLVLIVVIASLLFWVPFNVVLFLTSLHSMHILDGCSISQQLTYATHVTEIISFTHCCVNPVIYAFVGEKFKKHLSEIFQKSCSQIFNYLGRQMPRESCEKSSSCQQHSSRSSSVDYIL

EC50: 0.658 nM
Substance: GS-1811
